Earlier results, collected in PMC8138767, “Intrinsically disordered substrates dictate SPOP subnuclear localization and ubiquitination activity” (The Journal of Biological Chemistry, 2021).

Key:
SPOP28–359 = target: T1, SPOP28–359 (Homo sapiens, UniProt O43791); details: substrates with six (DAXX) and seven (AR) SB motifs; cited from earlier work
T1 construct: A plasmid encoding His–SUMO–SPOP human residues 28 to 359; His-SUMO (N, cleaved yes); made in house; host or cells: E. coli Rosetta BL-21(DE3)
T1 sequence (O43791 28-359): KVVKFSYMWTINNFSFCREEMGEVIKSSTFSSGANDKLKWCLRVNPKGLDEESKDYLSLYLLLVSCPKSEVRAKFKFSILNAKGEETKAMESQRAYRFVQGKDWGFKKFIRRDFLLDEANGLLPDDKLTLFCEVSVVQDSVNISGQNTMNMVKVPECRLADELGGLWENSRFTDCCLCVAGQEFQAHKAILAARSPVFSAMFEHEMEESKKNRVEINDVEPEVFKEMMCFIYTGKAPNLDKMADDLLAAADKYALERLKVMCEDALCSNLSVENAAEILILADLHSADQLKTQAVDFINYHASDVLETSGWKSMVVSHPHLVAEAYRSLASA
Excerpt: We next sought to assess the role of SPOP oligomerization in the SPOP–Pdx1 interaction and saw a near 10-fold enhancement in binding affinity of Pdx1 to oligomeric SPOP28–359 compared with SPOP–MATH (Fig. 5B and Table S4) in agreement with previous similar observations ([22], [23]). Concentration-dependent SPOP self-association results in an ensemble of oligomeric species with sizes spanning from dimers to large multimers ([21]). SPOP substrates DAXX and AR are also multivalent for SPOP; they contain six and seven SB motifs, respectively, which dramatically enhances their affinities for SPOP28 ...

SPOP = details: in phase-separated droplets in cells; cited from earlier work
Excerpt: SPOP derives its name from the […]. Specifically, SPOP colocalizes with nuclear speckles but has also been reported in other subnuclear compartments ([24], [26]). The nuclear speckles that house SPOP in the absence of high concentrations of substrate are liquid-like in nature ([21]). The SPOP substrate DAXX typically localizes to promyelocytic leukemia bodies ([27]).

AR: androgen receptor, SPOP substrate with seven SB motifs
affinity for SPOP28–359 relative to SPOP–MATH (SPOP28–359): dramatically enhances their affinities for SPOP28–359 relative to SPOP–MATH
SPOP-mediated polyubiquitination in cells (SPOP): robust SPOP-mediated polyubiquitination
